Experimental findings from article PMC11960969, “Mdga2 deficiency leads to an aberrant activation of BDNF/TrkB signaling that underlies autism-relevant synaptic and behavioral changes in mice” (PLOS Biology, 2025) are described below.

This assay has as its system hippocampal proteins. Put plainly: DIA quantification proteomics, hippocampus of Mdga2+/- vs WT mice. The arrangement: species or system mouse. Conditions: S3 Table, downregulated DEPs; for log2FC: Mdga2+/- vs WT mouse hippocampus (HET-HIP-VS-WT-HIP), SE, pvalue and adj_pvalue in own columns c3-c5; for Class: regulation class of the protein, HET-HIP-VS-WT-HIP. The gist of the method: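 Hippocampi from 1.5–2-month-old male Mdga2+/− mice and WT littermates; 100 μg protein trypsin-digested, peptides high-pH fractionated. DDA-built spectral library, DIA by nano-LC–MS/MS with Spectronaut and mProphet QC. DEPs called at fold change >1.1 and p <0.05.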

B1: sp¦P06802¦ENPP1_MOUSE (protein, UniProt P06802 1-906, looked up)
Ectonucleotide …: MERDGDQAGHGPRHGSAGNGRELESPAAASLLAPMDLGEEPLEKAERARPAKDPNTYKVLSLVLSVCVLTTILGCIFGLKPSCAKEVKSCKGRCFERTFSNCRCDAACVSLGNCCLDFQETCVEPTHIWTCNKFRCGEKRLSRFVCSCADDCKTHNDCCINYSSVCQDKKSWVEETCESIDTPECPAEFESPPTLLFSLDGFRAEYLHTWGGLLPVISKLKNCGTYTKNMRPMYPTKTFPNHYSIVTGLYPESHGIIDNKMYDPKMNASFSLKSKEKFNPLWYKGQPIWVTANHQEVKSGTYFWPGSDVEIDGILPDIYKVYNGSVPFEERILAVLEWLQLPSHERPHFYTLYLEEPDSSGHSHGPVSSEVIKALQKVDRLVGMLMDGLKDLGLDKCLNLILISDHGMEQGSCKKYVYLNKYLGDVNNVKVVYGPAARLRPTDVPETYYSFNYEALAKNLSCREPNQHFRPYLKPFLPKRLHFAKSDRIEPLTFYLDPQWQLALNPSERKYCGSGFHGSDNLFSNMQALFIGYGPAFKHGAEVDSFENIEVYNLMCDLLGLIPAPNNGSHGSLNHLLKKPIYNPSHPKEEGFLSQCPIKSTSNDLGCTCDPWIVPIKDFEKQLNLTTEDVDDIYHMTVPYGRPRILLKQHHVCLLQQQQFLTGYSLDLLMPLWASYTFLRNDQFSRDDFSNCLYQDLRIPLSPVHKCSYYKSNSKLSYGFLTPPRLNRVSNHIYSEALLTSNIVPMYQSFQVIWHYLHDTLLQRYAHERNGINVVSGPVFDFDYDGRYDSLEILKQNSRVIRSQEILIPTHFFIVLTSCKQLSETPLECSALESSAYILPHRPDNIESCTHGKRESSWVEELLTLHRARVTDVELITGLSFYQDRQESVSELLRLKTHLPIFSQED
For the molecule B1, the log2FC is -2.366 and the Class result is on record as “Down”.

B2: sp¦Q5PR69¦CRAD_MOUSE (protein, UniProt Q5PR69 1-1291, looked up)
Capping protein-inhibiting …: MGARAFSHDSIFIPDGGAESEQTVQAMSQDNILGKVKTLQRQLGKNIKFGQRPSNAIPMKKAGSTDASSEEDFVLTSPMEIVTQQDIVPSDTENKSSDTPSSSSPLNLPEAGSDMEEKVAPVKPSRPKRHLSSAGTIESVNLDAIPLAIARLDNSAARHKLAVKPKNQRVSRKHRWLAQDRQNEPGSFESQSSLDQNGQLGEDKHIWHGEEPEPLESHEEKRLHEEYWRELEAKCKRQKAEAAEKRRQEEQRRQALERRLWEESLRQELLEEEEEGEEEEEVKEEGEEGEEVGLQPRAGKVPPEEGHQSGPEEQRCTEQELGGADDPARLEAEERRREQEEAERQAEKLRQREAERQEEEQKQREAERQEEEARQCEAERQAEKLRQREAERQEEEARQREAERQAEKLRQREAERQEEELRQREEAERQEKLRQRDAESQEEELRQREAERQRAQEEDAKGMLQEEEEEAKRIEELKGKETPEPLVEEGPQSPEGESQPWLTDDADQRSPLQRDLEKPGEREREDLESAGQREIAEEPRGEGEPAEQSGDLDAHCGGVDGEGKETAQTDSPQPQERQMEGTPAPEENEATAADIDRKVEELRWQEVDERQTMPRPYTFQVSSGSRQILFPKVNLSPVTPAKDASLAPAAQEPPAPRGAASHALPSALSIPHTAILVTGAQLCGPAVNLSQIKDTACKSLLGLSEEKRPMDVPTVESRAGSGKSRPAPESPSNAAALAEWASIRSRILKNSEGDQRGDREPARAGDEPVPRARCDSRGNVRRTPPVNAKFSIMPAWQKFSDSGAETFRQSLDGESGRKKPGLAPSEETAPQPHAAAQQEVSQEPPDTTDGCKFAKDLPSFLVPGLPSPQKAASRTESTTTLDSETTSDVGNPDPAMPGGEEKASPFGIKLRRTNYSLRFHCDQQAEQKKKKRHSSTGDSVGGATPATGSVSGESEPEATFLKHGPSLPQERKPALSPRKDSAESHSSGHYVAVAQSGLPPASGQTPAPEQDRAVSKMPSMQKPALAPKPASQTPPSSPLSKLSRPHLVELLARRAGKLDSEPSETAKESSDNQPPSPSLPEELKGQKRDEKDVPEKKPASPPLPAGQQERPSLIPETGRKEKPVLQSRHSLDGSKVTEKVETAQPLWITLALQKQKGFREQQATREERKQAREAKQAEKLSKETVSVSLQPGSSRASKTAPVHKPAAPSEEKKPETAVSRLQRREQLKKSNTLPTSVTVEISDSAPSAALVKDVTKRFSTPDAAPVSTEPAWLALAKRKAKAWSDCPQIIK
On to B2, for which the log2FC is -1.882 and the Class result is “Down”.

B3: sp¦Q8K4I3¦ARHG6_MOUSE (protein, UniProt Q8K4I3 1-771, looked up)
Rho guanine nucleotide …: MNPEERLVTWLISLGVLESPKKTVCDPEEFLKSSLKNGVVLCKLINRLLPGSVEKYCLEPQTEADCIDNINDFLKGCATLQVEVFEPDDLYSGANFSKVLNTLLAVNKATEDQLSERPCGRSSSLSAATSSQTNPQVAVPSTAPEQHSEEKAEMTENGSHQLIVKARFNFKQTNEDELSVCKGDIIYVTRVEEGGWWEGTLNGRTGWFPSNYVREIKPSERPLSPKAIKGFDTAPLTKNYYTVVLQNILDTEKEYAKELQSLLVTYLRPLQSNNNLSTVEFTCLLGNFEEVCTFQQTLCQALEECSKFPENQHKVGGCLLNLMPHFKSMYLAYCANHPSAVNVLTQHSDDLERFMENQGASSPGILILTTSLSKPFMRLEKYVTLLQELERHMEDTHPDHQDILKAIIAFKTLMGQCQDLRKRKQLELQILSEPIQAWEGDDIKTLGNVIFMSQVVMQHGACEEKEERYFLLFSSVLIMLSASPRMSGFMYQGKIPIAGMVVNRLDEIEGSDCMFEITGSTVERIVVHCNNNQDFQEWMEQLNRLTKGPTSCGSLSKTSSSSCSTHSSFSSTGQPRGPLEPPQIIKPWSLSCLRPAPPLRPSAALGYKERMSYILKESSKSPKTMKKFLHKRKTERKASEEEYVIRKSTAALEEDAQILKVIEAYCTSASFQQGTRKDSVPQVLLPEEEKLIIEETRSNGQTIIEEKSLVDTVYALKDEVKELKQENKKMKQCLEEELKSRKDLEKLVRKLLKQTDECIRSESSSKTSILQ
Turning to B3, the log2FC is recorded as -1.975 and the Class result is “Down”.

B4: sp¦Q3TBL6¦TP8L3_MOUSE (protein, UniProt Q3TBL6 1-204, looked up)
Tumor necrosis factor …: MDSDSGEQSEGEPGTAAGPHVFSSKNLALQAQKKILSKIASKTVANMLIDDTSSEIFDELYKVTEIHTHNKKEAHKIMKDAIKVAIKIGILYRNKQFSQEEVIIVEKLRKKLNQTAMTMVSFYEVEYTFDTNVLSKLLHECKDLVHELVQRHLTPRTHGRINHVFNHFADVEFLSTLYGPHGNCRPNLKRICEGINKLLDDKIL
B4: the log2FC was -2.713 and the Class result was “Down”.

B5: sp¦Q8BUB4¦WDFY2_MOUSE (protein, UniProt Q8BUB4 1-400, looked up)
WD repeat and FYVE …: MAAEIQPQPLTRKPILLQRVEGSQEVVNMAVIVPKEEGVISVSEDRTVRVWLKRDSGQYWPSIYHAMPSPCSCMSFNPETRRLSIGLDNGTISEFILSEDYNKMTPVKNYQAHQSRVTMVLFVLELEWVLSTGQDKQFAWHCSESGQRLGGYRTSAVASGLQFDVETRHVFIGDHSGQVTILKLEQENCTLLTSFRGHTGGVTALCWDPVQRVLFSGSSDHSVIMWDIGGRKGTAIELQGHNDKVQALSYAQHTRQLISCGGDGGIVVWNMDVERQETPEWLDSDSCQKCDQPFFWNFKQMWDSKKIGLRQHHCRKCGKAVCGKCSSKRSSIPLMGFEFEVRVCDSCHEAITDEERAPTATFHDSKHNIVHVHFDATRGWLLTSGTDKVIKLWDMTPVVS
Turning to B5, the log2FC is listed as -1.823 and the Class entry is “Down”.

B6: sp¦O54983¦CRYM_MOUSE (protein, UniProt O54983 1-313, looked up)
Ketimine reductase …: MKRAPAFLSAEEVQDHLRSSSLLIPPLEAALANFSKGPDGGVMQPVRTVVPVAKHRGFLGVMPAYSAAEDALTTKLVTFYEGHSNTAVPSHQASVLLFDPSNGSLLAVMDGNVITAKRTAAVSAIATKLLKPPGSDVLCILGAGVQAYSHYEIFTEQFSFKEVRMWNRTRENAEKFASTVQGDVRVCSSVQEAVTGADVIITVTMATEPILFGEWVKPGAHINAVGASRPDWRELDDELMRQAVLYVDSREAALKESGDVLLSGADIFAELGEVISGAKPAHCEKTTVFKSLGMAVEDLVAAKLVYDSWSSGK
In the case of B6, the log2FC was -1.898 and the Class entry was “Down”.

B7: sp¦P28076¦PSB9_MOUSE (protein, UniProt P28076 21-219, looked up)
Proteasome subunit beta type-9: TTIMAVEFDGGVVVGSDSRVSAGTAVVNRVFDKLSPLHQRIFCALSGSAADAQAIADMAAYQLELHGLELEEPPLVLAAANVVKNISYKYREDLLAHLIVAGWDQREGGQVYGTMGGMLIRQPFTIGGSGSSYIYGYVDAAYKPGMTPEECRRFTTNAITLAMNRDGSSGGVIYLVTITAAGVDHRVILGDELPKFYDE
Consider B7, for which the log2FC is recorded as -1.875 and the Class entry is recorded as “Down”.

B8: sp¦Q9ERI2¦RB27A_MOUSE (protein, UniProt Q9ERI2 2-221, looked up)
Ras-related protein Rab-27A: SDGDYDYLIKFLALGDSGVGKTSVLYQYTDGKFNSKFITTVGIDFREKRVVYRANGPDGAVGRGQRIHLQLWDTAGQERFRSLTTAFFRDAMGFLLLFDLTNEQSFLNVRNWISQLQMHAYCENPDIVLCGNKSDLEDQRAVKEEEARELAEKYGIPYFETSAANGTNISHAIEMLLDLIMKRMERCVDKSWIPEGVVRSNGHTSADQLSEEKEKGLCGC
In the case of B8, the log2FC is -2.259 and the Class entry is listed as “Down”.

B9: sp¦Q9EPQ7¦STAR5_MOUSE (protein, UniProt Q9EPQ7 1-213, looked up)
StAR-related lipid transfer …: MDPSWATQESEAVAEKVLRYRRDASGWKKCREGNGVSISWRPSEEFPGNLYRGEGILCGTPEEVWDCIKPVASGLREKWDDNVSSFEIVQSITDMLCVSRTSTPSAAMKLISPRDFVDLVLVKKYEDGTISSNATHVEHPLCPPKPGFVRGFNHPCGCFCEPLPGDPNKTNLVTFFQTDLSGYLPQSVVDSFFPRSMAEFYPNLQKAVRKFHH
Consider B9, for which the log2FC is -1.896 and the Class entry is given as “Down”.

B10: sp¦Q922B6¦TRAF7_MOUSE (protein, UniProt Q922B6 1-594, looked up)
E3 ubiquitin-protein ligase …: MPPINTPRRSDSAISVRSLHSESSMSLRSTFSLPEEEEEPEPLVFAEQPSVKLCCQLCCSVFKDPVITTCGHTFCRRCALKSEKCPVDNAKLTVVVNNIAVAEQIGELFIHCRHGCHAAGTGKPGVFEVDPRGCPFTIKLSARKDHESSCDYRPVRCPNNPSCPPLLKMNLEAHLKECEHIKCPHSKYGCTFIGNQDTYETHLETCRFEGLKEFLQQTDDRFHEMHVALAQKDQEIAFLRSMLGKLSEKIDQLEKSLELKFDVLDENQSKLSEDLMEFRRDASMLNDELSHINARLNMGILGSYDPQQIFKCKGTFVGHQGPVWCLCVYSMGDLLFSGSSDKTIKVWDTCTTYKCQKTLEGHDGIVLALCIQGCKLYSGSADCTIIVWDIQNLQKVNTIRAHDNPVCTLVSSHNMLFSGSLKAIKVWDIVGTELKLKKELTGLNHWVRALVAAQSYLYSGSYQTIKIWDIRTLDCIHVLQTSGGSVYSIAVTNHHIVCGTYENLIHVWDIESKEQVRTLTGHVGTVYALAVISTPDQTKVFSASYDRSLRVWSMDNMICTQTLLRHQGSVTALAVSRGRLFSGAVDSTVKVWTC
As for B10, the log2FC is given as -2.686 and the Class result is on record as “Down”.
